Test results published in patent publication US20200317807A1.

T1: CD70 (human) (UniProt P32970)
T1 sequence: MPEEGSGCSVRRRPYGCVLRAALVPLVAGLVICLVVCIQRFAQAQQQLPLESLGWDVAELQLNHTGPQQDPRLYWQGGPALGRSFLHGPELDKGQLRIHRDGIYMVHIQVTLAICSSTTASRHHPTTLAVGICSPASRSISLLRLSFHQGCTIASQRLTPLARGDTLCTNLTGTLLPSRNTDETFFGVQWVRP


Key:
mouse CD70 (mouse) = mouse CD70 (mouse) (UniProt O55237); assay: cell-based or functional assay
CD70 (human) = target: T1, CD70 (human); assay: cell-based or functional assay

Sequence of UniProt O55237 (O55237 whole entry): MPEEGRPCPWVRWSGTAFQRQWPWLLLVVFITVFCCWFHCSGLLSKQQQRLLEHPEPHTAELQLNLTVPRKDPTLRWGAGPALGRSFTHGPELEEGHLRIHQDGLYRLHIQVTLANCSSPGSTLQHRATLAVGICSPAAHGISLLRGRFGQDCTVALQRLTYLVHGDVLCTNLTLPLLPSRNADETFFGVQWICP

| IFN-γ (pg/ml), mouse T cells/mCD27-CD3ζ CAR co-cultured with B16/mCD70 (mouse CD70 (mouse)) [pg/mL] | IFN-γ (pg/ml), co-culture with 624/CD70 (CD70 Positive) (CD70 (human)) [pg/mL] | IFN-γ (pg/ml), co-culture with RCC 1581 (CD70 Pos) (CD70 (human)) [pg/mL] | IFN-γ (pg/ml), co-culture with RCC 2095R (CD70 Pos) (CD70 (human)) [pg/mL] | IFN-γ (pg/ml), co-culture with RCC 2219R (CD70 Pos) (CD70 (human)) [pg/mL] | IFN-γ (pg/ml), co-culture with RCC 2245R (CD70 Pos) (CD70 (human)) [pg/mL] | IFN-γ (pg/ml), co-culture with RCC 2246R (CD70 Pos) (CD70 (human)) [pg/mL] | IFN-γ (pg/ml), co-culture with RCC 2261R (CD70 Pos) (CD70 (human)) [pg/mL] | IFN-γ (pg/ml), co-culture with RCC 2361R (CD70 Pos) (CD70 (human)) [pg/mL] | IFN-γ (pg/ml), co-culture with RCC 2654R (CD70 Pos) (CD70 (human)) [pg/mL] | IFN-γ (pg/ml), co-culture with RCC 2657R (CD70 Pos) (CD70 (human)) [pg/mL] | Binder |
| --- | --- | --- | --- | --- | --- | --- | --- | --- | --- | --- | --- |
| 642000 | – | – | – | – | – | – | – | – | – | – | mCD27-CD3ζ CAR (full-length mouse CD27 and a mouse CD3ζ T cell intracellular signaling domain) (receptor) PNSCPDKHYWTGGGLCCRMCEPGTFFVKDCEQDRTAAQCDPCIPGTSFSPDYHTRPHCESCRHCNSGFLIRNCTVTANAECSCSKNWQCRDQECTECDPPLNPALTRQPSETPSPQPPPTHLPHGTEKPSWPLHRQLPNSTVYSQRSSHRPLCSSDCIRIFVTFSSMFLIFVLGAILFFHQRRNHGPNEDRQAVPEEPCPYSCPREEEGSAIPIQEDYRKPEPAFYPRAKFSRSAETAANLQDPNQLYNELNLGRREEYDVLEKKRARDPEMGGKQQRRRNPQEGVYNALQKDKMAEAYSEIGTKGERRRGKGHDGLYQGLSTATKDTYDALHMQTLAPR |
| – | 6480 | 11800 | 5820 | 12100 | 9110 | 8220 | 7270 | 2260 | 7890 | 3510 | full length (f) CD27-CD3ζ CAR (full-length human CD27 and a human CD3ζ T cell intracellular signaling domain) (receptor) ATPAPKSCPERHYWAQGKLCCQMCEPGTFLVKDCDQHRKAAQCDPCIPGVSFSPDHHTRPHCESCRHCNSGLLVRNCTITANAECACRNGWQCRDKECTECDPLPNPSLTARSSQALSPHPQPTHLPYVSEMLEARTAGHMQTLADFRQLPARTLSTHWPPQRSLCSSDFIRILVIFSGMFLVFTLAGALFLHQRRKYRSNKGESPVEPAEPCRYSCPREEEGSTIPIQEDYRKPEPACSPRVKFSRSADAPAYQQGQNQLYNELNLGRREEYDVLDKRRGRDPEMGGKPRRKNPQEGLYNELQKDKMAEAYSEIGMKGERRRGKGHDGLYQGLSTATKDTYDALHMQALPPR |
